The text below walks through data of patent publication US7977317B2, “Compositions and methods for modulating blood-brain barrier transport” (Raptor Pharmaceutical Inc., priority 2001, dated 2011).

Test [1] deals with BBCEC monolayers. The experiment in a line: Accumulation of ligands in BBCEC monolayers. The class given is cell-based, bovine. The settings on record: native proteins (FIG. 13c). Here is the method:
FIG. 7 illustrates the results of experiments where the ligands p97, Lf and Tf were heated or not heated prior to the binding study. In all cases, binding experiments were conducted in the transwell apparatus as described previously, with the exception that binding was conducted at either 4° C. or at 37° C. For the 37° C. trial, a separate experiment was conducted where the ligand was boiled for 30 mins then rapidly cooled prior to administration on the transwell plates.
(§1) FIG. 13 illustrates the transcytosis and accumulation of p97 and transferrin in BBCEC monolayers. FIG. 13a, Transcytosis experiments were performed at 37° C. (solid bars) or 4° C. (white bars). [^125I]-p97 or bovine [^125I]-holo-transferrin (1 mg/ml) was added to the upper side of the cell-covered filter. At the end of the experiment, radiolabelled proteins were measured in the lower chamber of each well by TCA precipitation (n=4). Controls were also performed at 37° C. with denatured [^125I]-p97 or bovine [^125I]-holo-transferrin boiled for 30 min (grey bars) (n=2); FIG. 13b, Biospecific interaction analysis was performed with native or boiled p97 for the indicated times. MAb L235 (5 μg) was immobilized on a sensor chip (SM5) using standard procedures incorporating NHS, EDC and ethanolamine. Native and boiled p97 (5 to 30 min) diluted at 1 mg/ml in Ringer/Hepes was cooled and injected into the BIAcore. The surface plasmon resonance response obtained for native p97 and boiled p97 was plotted (in relative units (RU)) as a function of time; FIG. 13c, The accumulation of both proteins into BBEC cells were also measured. Briefly, after incubation at 37° C. (solid bars) or 4° C. (white bars) with either [^125I]-protein, cells were washed four times with cold PBS. Accumulation of both denatured proteins (grey bars) was also measured at 37° C. Filters were then removed, and the radioactivity associated with the cells was quantified (n=3).
In all cases, binding experiments were conducted in the transwell apparatus as described previously, with the exception that binding was conducted at either 4° C. or at 37° C. For the 37° C. trial, a separate experiment was conducted where the ligand was boiled for 30 mins then rapidly cooled prior to administration on the transwell plates.

Test [2] relates to BBCEC monolayers. Briefly: Transcytosis across BBCEC monolayers (in vitro BBB model). The test is classed as cell-based, bovine. The settings on record: 200-fold molar excess of competitor, [125I]-p97 25 nM (FIG. 15a, 15b).
Source text: FIG. 10 assesses the ability of several agents to interfere with p97 transyctosis. FIG. 10a, transcytosis of I125-P97 was compared in the presence of cold p97 (5 micromolar), Lf (5 micromolar), and Tf (5 micromolar). […] FIG. 10c, RAP, a known poly-peptide inhibitor of the LDL-Receptor family was applied to the cells (25 micrograms/ml).
FIG. 11 examines the accumulation and transcytosis of p97. FIG. 11a, of [^125I]-p97, [^125I]-BSA and [^125I]-holo-transferrin one hour after i.v. injection. The radioactivity in brain was compared between the three compounds. (n=3); FIG. 11b, Accumulation of p97 and transferrin into the mouse brain parenchyma. In situ brain perfusion was performed with human [^125I]-p97 or [^125I]-holo-transferrin at a final concentration of 10 nM via a catheter inserted in the right common carotid artery. The volume of distribution (VD) of [^125I]-proteins were obtained in the whole brain homogenate (white bars), in brain capillaries (solid bars) and in brain parenchyma (hatched bars) after isolation of the right hemisphere and capillary depletion. Results were obtained for p97 (n=10) and for holo-transferrin (n=6); FIG. 11c, Transcytosis of p97 across BBCEC monolayers. Transcytosis experiments were performed 37° C. (open circles) and 4° C. (closed circles) with BBCEC monolayers. [^125I]-p97 (1 mg/ml) was added to the upper side of the cell-covered filter. One representative experiment is shown (n=4); FIG. 11d, Preferential transport of p97 across the BBCEC monolayers. Apical-to-basal and basal-to-apical transport of [^125I]-p97 (25 nM) was measured for 2 hrs at 37° C. At the end of the experiment, [^125I]-p97 was assessed in the lower or upper chambers of each well by TCA precipitation (n=4).
as §1
FIG. 14 illustrates the stability of p97 and integrity of the BBCEC monolayers following p97 transcytosis. FIG. 14a, Transcytosis experiments were performed at 37° C. and 4° C. by adding p97 (1 mg/ml) to the upper compartment. At the end of the experiment, 50 μl from each lower chamber was used for SDS-polyacrylamide gel electrophoresis. After electrophoresis, the gels were stained with Coomassie Blue. A standard curve was also made with known amounts of recombinant p97 (0-2 μg); FIG. 14b. The gels were dried and scanned to quantify the amount of intact p97 that crossed the BBCEC monolayers at 37° C. and 4° C. (n=3); FIG. 14c, Effect of p97 on sucrose permeability of BBCE cell monolayers co-cultured with astrocytes. […]

B1: bovine holo-transferrin: bovine holo-transferrin (protein, UniProt Q29443 20-704, looked up)
Serotransferrin: DPERTVRWCTISTHEANKCASFRENVLRILESGPFVSCVKKTSHMDCIKAISNNEADAVTLDGGLVYEAGLKPNNLKPVVAEFHGTKDNPQTHYYAVAVVKKDTDFKLNELRGKKSCHTGLGRSAGWNIPMAKLYKELPDPQESIQRAAANFFSASCVPCADQSSFPKLCQLCAGKGTDKCACSNHEPYFGYSGAFKCLMEGAGDVAFVKHSTVFDNLPNPEDRKNYELLCGDNTRKSVDDYQECYLAMVPSHAVVARTVGGKEDVIWELLNHAQEHFGKDKPDNFQLFQSPHGKDLLFKDSADGFLKIPSKMDFELYLGYEYVTALQNLRESKPPDSSKDECMVKWCAIGHQERTKCDRWSGFSGGAIECETAENTEECIAKIMKGEADAMSLDGGYLYIAGKCGLVPVLAENYKTEGESCKNTPEKGYLAVAVVKTSDANINWNNLKDKKSCHTAVDRTAGWNIPMGLLYSKINNCKFDEFFSAGCAPGSPRNSSLCALCIGSEKGTGKECVPNSNERYYGYTGAFRCLVEKGDVAFVKDQTVIQNTDGNNNEAWAKNLKKENFEVLCKDGTRKPVTDAENCHLARGPNHAVVSRKDKATCVEKILNKQQDDFGKSVTDCTSNFCLFQSNSKDLLFRDDTKCLASIAKKTYDSYLGDDYVRAMTNLRQCSTSKLLEACTFHKP
modifications: iron-loaded (holo)
Turning to B1, the “Accumulation in BBCE cells” value in the test on BBCEC monolayers [1] was “no significant accumulation”. The “Reduction of apical-to-basal transport of [125I]-p97” value in the test on BBCEC monolayers [2] is “had no impact”.
